Earlier results, collected in US20110118324A1, “METHOD AND COMPOSITION FOR TREATING MULTIPLE SCLEROSIS (VARIANTS)” (priority 2009, published 2011).

System: multiple sclerosis patients

B1: Betaferon: a recombinant human Beta-1b interferon (protein, UniProt P01574 22-187, looked up, variant C17S)
Interferon beta: MSYNLLGFLQRSSNFQSQKLLWQLNGRLEYCLKDRMNFDIPEEIKQLQQFQKEDAALTIYEMLQNIFAIFRQDSSSTGWNETIVENLLANVYHQINHLKTVLEEKLEKEDFTRGKLMSSLHLKRYYGRILHYLKAKEYSHCAWTIVRVEILRNFYFINRLTGYLRN
modifications: lacks N-terminal Met, non-glycosylated
notes: a recombinant human Beta-1b interferon
reduction of the frequency of acute conditions occurring in the disease: 30% | reduction of the severity of acute conditions: 30% | side effects: intensified depressive symptomatology
